Experimental findings from US20090087494A1 (BOARD OF REGENTS OF THE UNIVERSITY OF NEBRASKA, published 2009) are described below.

In experiment [1] the target is T1, bovine LHRH receptor (bovine, UniProt P32236 1-328).
T1 construct: whole, on cells; The receptor stood in crude membrane preparations of bovine tissue homogenates, not on intact cells; also called GnRH receptor
T1 sequence (looked up): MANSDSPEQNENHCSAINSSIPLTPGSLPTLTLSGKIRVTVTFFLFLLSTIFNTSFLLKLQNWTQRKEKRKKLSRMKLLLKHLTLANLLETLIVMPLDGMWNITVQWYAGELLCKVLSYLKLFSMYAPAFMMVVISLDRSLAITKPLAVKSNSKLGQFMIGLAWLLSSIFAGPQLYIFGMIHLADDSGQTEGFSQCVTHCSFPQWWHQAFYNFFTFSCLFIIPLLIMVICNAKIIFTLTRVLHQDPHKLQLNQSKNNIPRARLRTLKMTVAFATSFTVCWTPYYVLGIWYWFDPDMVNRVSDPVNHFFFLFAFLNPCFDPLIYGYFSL
In words: displacement of 125I-deslorelin, bovine pituitary membranes, high affinity site (IC50 I). The protocol: (§1) Competition Studies: To determine the amount of unlabelled deslorelin required to displace the radioactivity, competition studies were conducted. Briefly, membranes were incubated with 100,000 cpm of I¹²⁵ deslorelin in the presence or absence of unlabelled deslorelin (0.01-3,000 ng) in a total volume of 200 μl for 4 hr at 4° C. Assays were performed in triplicates. At the end of 4 hr, the incubation tubes were centrifuged at 10,000 g for 20 min at 4° C. to separate the bound fraction. Radioactivity was measured in the pellet using a Perkin-Elmer γ-counter. The same controls as in the kinetic and saturation studies were used. The experiment was repeated three times.
For orientation: In a radioligand displacement assay an active substance lowers the binding of a labelled ligand.

Experiment [2] addresses T1, bovine LHRH receptor. In words: displacement of 125I-deslorelin, bovine nasal MTA region membranes, high affinity site (IC50 I). The method, then:
as §1

Experiment [3] deals with T1, bovine LHRH receptor. Briefly: displacement of 125I-deslorelin, bovine nasal ITP region membranes, high affinity site (IC50 I). The method, then:
as §1

For experiment [4], the target named is T1, bovine LHRH receptor. In words: displacement of 125I-deslorelin, bovine nasal MTA region membranes, low affinity site (IC50 II). The method, then: as §1
Experiment [5] addresses T1, bovine LHRH receptor. Briefly: displacement of 125I-deslorelin, bovine pituitary membranes, low affinity site (IC50 II). The protocol:
as §1

Experiment [6] concerns the target T1, bovine LHRH receptor. Briefly: displacement of 125I-deslorelin, bovine nasal MTP region membranes, high affinity site (IC50 I). The method, then: as §1
Experiment [7] concerns the target T1, bovine LHRH receptor. In words: displacement of 125I-deslorelin, bovine nasal ITP region membranes, low affinity site (IC50 II). The method, then:
as §1

Experiment [8] deals with T1, bovine LHRH receptor. In words: displacement of 125I-deslorelin, bovine nasal MTP region membranes, low affinity site (IC50 II). The protocol:
as §1

B1: deslorelin (peptide)
peptide: EHWSYWLRP
modifications: pGlu at position 1; D-Trp at position 6; C-terminal ProNHEt (ethylamide)
notes: Synthetic LHRH analog, gift from Balance Pharmaceuticals; also called unlabelled deslorelin; unlabeled deslorelin
For B1, the IC50 (commonly the concentration that gives 50% inhibition) was determined as 0.031 nM in experiment [1]; 0.136 nM in experiment [2]; 0.102 nM in experiment [3]; 53.2 nM in experiment [4]; 17.9 nM in experiment [5]; 0.112 nM in experiment [6]. The results for the IC50 in experiment [7] and in experiment [8] were 32.9 nM and 42.1 nM, respectively.
